From PMC4050180 (FEBS Open Bio, 2014) come the findings set out here.

Sequences and labels used below:
B1: GST-DGKα-EF-hand motifs (domain or fragment)
chain: not shown

For test [1], the target named is T1, 6xHis-TF-DGKα-C1 domains (porcine, UniProt P20192 196-362).
T1 sequence (looked up): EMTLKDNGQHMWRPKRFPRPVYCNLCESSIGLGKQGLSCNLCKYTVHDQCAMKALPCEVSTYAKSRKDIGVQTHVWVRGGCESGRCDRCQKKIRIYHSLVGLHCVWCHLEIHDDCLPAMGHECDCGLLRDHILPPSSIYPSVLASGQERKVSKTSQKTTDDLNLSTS
The test can be described thus: pull-down.

Test [2] concerns the target B1. The test can be described thus: pull-down.

With B1, the binding result in test [1] is “binds”.

B2: EGFP-DGKα-C-terminal region (domain or fragment)
chain: not shown
For B2, the “band intensity relative to the RVH domain” value in test [2] is roughly 3 fold.
